From paper PMC8352653 (Cell Reports, 2021)

Legend:
[1] = biological target: recombinant stabilized trimeric prefusion ectodomain of the SARS-CoV-2 S protein (S6P_(ecto)) (SARS-CoV-2, UniProt P0DTC2)
[2] = biological target: SARS-CoV-2 RBD (SARS-CoV-2, Wuhan-Hu-1 (assumed), UniProt P0DTC2); test: ELISA
[3] = biological target: S protein C-terminal S2 region expressed on HEK293T cells (SARS-CoV-2, Wuhan-Hu-1, UniProt P0DTC2); test: flow cytometry on cells

Row | Binder | binding result [2] | binding result [3] | other results
1 | COV2-2164 (antibody, V domains shown) VH: QVQLVQSGAEVKKPGSSVKVSCKASGGTFSSYAISWVRQAPGQGLEWMGGIIPIFGTANYAQKFQGRVTITADESTSTGYMQLSSLRFEDTAVYYCARTSHYDSSGSYFEYWGQGTLVTVSS VL: EIVLTQSPATLSLSPGERATLSCRASQSVSSYLAWYQQKPGQAPRLLIYDASNRATGIPARFSGSGSGTDFTLTISSLEPEDFAVYYCHKRSNWPPSLTFGGGTKVEIK | – | – | binding result [1]: binds
2 | COV2-2531 (antibody, V domains shown) VH: QVQLQESGPGLVKPSETLSLTCSVSGGSIRSYFWNWVRQPPGKGLEWIGYIYYSGSTNYKPSFKSRVTISLDTSKNQISLKLSSVTAADTAVYYCARATWLRDAFGIWGQGTMVTVSS VL: NFMLTQPHSVSESPGKTVTISCTGNSGSIASNYVQWYQQRPGSAPTTVIYEDSQRPSGVPDRFSGSIDSSSNSASLTISGLKTEDEADYYCQSFDSGNVVFGGGTKLTVL | binds | – | –
3 | C126 (antibody, V domains shown) VH: QVQLQESGPGLVKPSETLSLSCAVSGGSIGSYFWSWIRQPPGKGLEWIGYLHYSGSTNYNPSLKSRVTISVDTSKNQFSLKLSSVTAADTAVYYCARLQWLRGAFDIWGQGTMVTVSS VL: NFMLTQPHSVSESPGKTVTISCTGSSGSIASNYVQWYQQRPGSAPTTVINEDNQRPSGVPDRFSGSIDSSSNSASLTISGLKTEDEADYYCQSYDSSNLVFGGGTKLTVL | binds | – | –
4 | group 3 germline revertant (antibody, V domains shown) VH: QVQLQESGPGLVKPSETLSLTCTVSGGSISSYYWSWIRQPPGKGLEWIGYIYYSGSTNYNPSLKSRVTISVDTSKNQFSLKLSSVTAADTAVYYCARATWLRDAFGIWGQGTMVTVSS VL: NFMLTQPHSVSESPGKTVTISCTGSSGSIASNYVQWYQQRPGSAPTTVIYEDNQRPSGVPDRFSGSIDSSSNSASLTISGLKTEDEADYYCQSYDSSNVVFGGGTKLTVL | binds | – | –
5 | COV2-2002 (antibody, V domains shown) VH: EVQLVESGGGLVQPGGSLRLSCAASGFTFSFYWMSWVRQAPGKGLEWVANIKQDGSEKYYVDSVKGRSTISRDNAKNSLYLQMNSLRAEDTAVYYCARVGSSSWYFDYWGQGTLVTVSS VL: not shown | – | binds | –
6 | COV2-2333 (antibody, V domains shown) VH: EVQLVESGGGLVQPGGSLRLSCAASGFTFSIYWMSWVRQAPGKGLQWVANIKQDASEKYYVDSVKGRFTISRDNAKNSLYLQMNSLRAEDTAVYYCARLGGSSWHFDYWGQGTLVTVSS VL: SYELTQPPSVSVSPGQTASITCSGDKLGDKYSSWYQQKPGQSPVLVIYEDTKRPSGIPERFSGSNSGNTATLTISGTQAMDEADYYCQAWSSSTAVFGGGTKLTVL | – | binds | –
7 | CnC2t1p1_B10 (antibody, V domains shown) VH: QVQLVQSGAEVKKPGSSVKVSCKASGGTFSSYAISWVRQAPGQGLEWMGGIIPIFGTANYAQKFQGRVTITADKSTSTAYMELSSLRSEDTAVYYCARVSGYDSSGYWGDYWGQGTLVTVSS VL: EIVLTQSPATLSLSPGERATLSCRASQSVSSYLAWYQQKPGQAPRLLIYDASNRATGIPARFSGSGSGTDFTLTISSLEPEDFAVYYCQQRSNWPPALTFGGGTKVEIK | – | binds | –
